40 sequences from the nanobody polyreactivity screen of Harvey et al. (2022) can be followed below.

A short description of the data set: yeast display, Sf9 membrane polyspecificity reagent, FACS + sequencing; frameworks hold sequencing errors. Summed up: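 Synthetic nanobody libraries on Saccharomyces cerevisiae BJ5465 were galactose-induced for 36–48 hours, stained 1 hour at 4 °C with 10% biotinylated, detergent-solubilized Sf9 membrane reagent and enriched on streptavidin microbeads. FACS then separated cells into low and high (top ~1%) gates by anti-HA (expression) and streptavidin (reagent binding) fluorescence. Genes were colony-PCR amplified, MiSeq 2 × 250 sequenced and CDR-length filtered. A clone's polyreactivity label is that of its gate of origin.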
For the sequence “QVQLVESGGGLVQAGGSLRLSCAASGSIFFIYDMGWYRQAPGKERELVADITSGGGSTFYADSVKGRFTISRDNAKNTVYLQMNRLKPEVSAVYYCATDDHDQPGGQLYITEVNYWGQGTQVTVSS”, the “polyreactivity (PSR sort gate)” value is listed as “low polyreactivity”.

On to “QVQLVESGGGLVQAGGSLRLSCAASGSIFFLYAMGWYRQAPGKERELVAAISCSGGRTYYADSVKGRFTISRDNAKNTDYIQMNSLKPEDTAVYYCAASYSGRQDRYPHYDYWGQGTQVTVSS”, for which the “polyreactivity (PSR sort gate)” value is reported as “low polyreactivity”.

Turning to “QVQLVESGGGLVQAGGSLRLSCAASGSIFFNNTKGWYRPAPGKERELVAAINWSGTSTYYADSVKGRFTISRDNAMNTVYLQMNSLKPEDTEVYYCAADVVRSNFDGTFLYDYDYWGLGTQVTVSS”, the “polyreactivity (PSR sort gate)” value is recorded as “low polyreactivity”.

On to “QVQLVESGGGLVQAGGSLRLSCAASGSIFFNTMGWYRQAPGKERELVAAINTSGGRTYYADSVKGRFTISRDNAKNTVYLQMNSLKPEDTAVYYCATTAYSQYYTYYYWGQGTQVTVSS”, for which the “polyreactivity (PSR sort gate)” value is given as “high polyreactivity”.

Take “QVQLVESGGGLVQAGGSLRLSCAASGSIFFPNAMGWYRQAPGKERELVAAITSTSTNYADSVKGRCTISRDNAKNTVYLQMNSLKPEDTAVYYCAADGEFRRAWYEGDYWGQGTQVTVSS”: the “polyreactivity (PSR sort gate)” value was “low polyreactivity”.

Turning to “QVQLVESGGGLVQAGGSLRLSCAASGSIFFRYAMGWYRQATGKERELVARISWGGGRTYYADSVKGRFTISRDNAKNTVYLQMNSLKPEDTAVYYCNRAYWVNPGGFEYWGQGTQVTVSS”, the “polyreactivity (PSR sort gate)” value is on record as “high polyreactivity”.

Take “QVQLVESGGGLVQAGGSLRLSCAASGSIFFSNAMGWYRQAPGKERELVAAITSTGGSTYYADSVKGRFTISRDTAKNTVYLQLNSLKPEDTAVYYCAAASRRGYYYWGQGTQVTVSS”: the “polyreactivity (PSR sort gate)” value is “high polyreactivity”.

Turning to “QVQLVESGGGLVQAGGSLRLSCAASGSIFFSNAMGWYRQAPGKERELVASISRDVSTNYADSVKGRFTISRDNAKNTVYLQMTSLKPEDTAVYYCAKRYYRYYYITYNGSHYGYWGQGTQVTVSS”, the “polyreactivity (PSR sort gate)” value is given as “low polyreactivity”.

Consider “QVQLVESGGGLVQAGGSLRLSCAASGSIFFTYAMGWYRQAPGKERELVAAISGVVSTYYADSVKGRFTISRDNAKNTVYLQMNSLKPEDTAVYYCAADYSWTGFGWEYDYWGQGTQVNVSS”, for which the “polyreactivity (PSR sort gate)” value was “low polyreactivity”.

Take “QVQLVESGGGLVQAGGSLRLSCAASGSIFFVNAMAWYRQAPGKERESVAGITGGGSTYYADSVKGRFTISRDNAKNTVYLQMNSLKPEDTAVYYCNKKAYRKTGMDYWGQGTQVTVSS”: the “polyreactivity (PSR sort gate)” value is recorded as “low polyreactivity”.

Turning to “QVQLVESGGGLVQAGGSLRLSCAASGSIFFVYAMGWYRQAPGKERELVAGIRWSGGRTSYADSVKGRFTISRDNAKNTVYLQMNSLNPEDTAVYYCAADPRSYFTSEYWGQGTQVTVSS”, the “polyreactivity (PSR sort gate)” value is listed as “high polyreactivity”.

For “QVQLVESGGGLVQAGGSLRLSCAASGSIFFVYAMGWYTQAPGKERELVAGIRWSGGRTSYADSVKGRFTISRDNAKNTVYLQMNSLNQEDTAVYYCAAGCGVLPQQHYYYRYDYWGQGTQVTVSS”, the “polyreactivity (PSR sort gate)” value is “high polyreactivity”.

Consider “QVQLVESGGGLVQAGGSLRLSCAASGSIFFWNDMGWYRQAPGKERELVAAISWSGGSTSYADSVKGRFTISRDNAKNTVYLQMNSLKPEDTAVYYCAAEYTYGSPYDYWGQGTQVTVSS”, for which the “polyreactivity (PSR sort gate)” value was “low polyreactivity”.

Regarding “QVQLVESGGGLVQAGGSLRLSCAASGSIFFYAMGWYRQAPGKERELVADITYTGGSKYADSVKGRFSISRDNAKNTVYLQMNSLKTEDTAVYYCAKLDGGLFDYWGQGTQVTVSS”, the “polyreactivity (PSR sort gate)” value was “low polyreactivity”.

With “QVQLVESGGGLVQAGGSLRLSCAASGSIFFYNTMGWYRQAPGKERELVAAISASGGRTYYADSVKGRFTISRDYSKNTVYLQMNSLKPEDTAVYYCAVRVPYRGYTRYDYWGHGTQVTVSS”, the “polyreactivity (PSR sort gate)” value was “high polyreactivity”.

Take “QVQLVESGGGLVQAGGSLRLSCAASGSIFFYYAMGWYRQAPGKERELVATITSGGSTSYADSVKGRFTISRDNAKNTVFLQMNSLKPEDTAVYYCAARKVTKSTYNYWGQGTQVTVSS”: the “polyreactivity (PSR sort gate)” value is given as “low polyreactivity”.

In the case of “QVQLVESGGGLVQAGGSLRLSCAASGSIFFYYAMGWYSQAPGTERELVAAIRNGGSTKYADSVKGRFTISRDNAKNTVYLQMNSLKPEDTAVYYCAAGYPVTRRTIRFDYWGQGTQVTVSS”, the “polyreactivity (PSR sort gate)” value is given as “high polyreactivity”.

Turning to “QVQLVESGGGLVQAGGSLRLSCAASGSIFGAYAMGWSRQAPGKERELVAAISGSGTSTYYADSVKGRFTISRDNAKNTVYLQMNSLKQEDTAVYYCAADGTYFYIYLGDRFDYWGQGTQVTVSS”, the “polyreactivity (PSR sort gate)” value is on record as “low polyreactivity”.

In the case of “QVQLVESGGGLVQAGGSLRLSCAASGSIFGAYAMGWYRQAPGKERELVAAISRSGSTTYYADSVKGRFTISRDNAKNTVYLQMNSLKPEDTAVYYCAARWTRFLSSSDYYYWGQGTQVTVSS”, the “polyreactivity (PSR sort gate)” value is reported as “high polyreactivity”.

Take “QVQLVESGGGLVQAGGSLRLSCAASGSIFGAYAMGWYRQAPGKERELVATITLRDGSTYYADSVKGRFTISRDNAKNTVYLQMNSLKPEDTAVSYCATYYSAINYGWSKTILYDYWGQGTQVTVSS”: the “polyreactivity (PSR sort gate)” value was “low polyreactivity”.

As to “QVQLVESGGGLVQAGGSLRLSCAASGSIFGDNAMGWSRQAPGKERDLVAAISSGGPTYADSVKGRFTISRDYAKNTVYLLMNSLKPEDTAVYYCNATDGMTPYDLTDIEFDYWGQGTHVTVSS”, the “polyreactivity (PSR sort gate)” value is reported as “low polyreactivity”.

With “QVQLVESGGGLVQAGGSLRLSCAASGSIFGDNAMGWYRQAPGKERELVAAISSSGGSTYADSVKGRFTISRDNAKNTVYLQMNSLKPEDTAVYYCATQIAWGTYVINPQMDYWGQGTQVTVSS”, the “polyreactivity (PSR sort gate)” value was “low polyreactivity”.

As for “QVQLVESGGGLVQAGGSLRLSCAASGSIFGDNAMGWYRQAPGKERELVAAISTRGGRTYYADSVKGRFTISRDNAKNTVYLQMNSLKPEDSAVYYCATSGGRPYKYEYWGQGTQVTVSS”, the “polyreactivity (PSR sort gate)” value is listed as “high polyreactivity”.

Take “QVQLVESGGGLVQAGGSLRLSCAASGSIFGDNAMGWYRQAPGKERELVATISSSDASTYYADSVKGRFTISRDNAKKTVYLQMNSLKPEDTAVYYCAAARSGGYDYWGQGTQVTVSS”: the “polyreactivity (PSR sort gate)” value is reported as “low polyreactivity”.

For “QVQLVESGGGLVQAGGSLRLSCAASGSIFGDYDMGWYRQAPGKERELVAAINRGGSTYYADSVKGRFTMSRDNAKNTVYLQMISLKPEDTAVYYCAAGYPSWYYGYAYDSWGQGTQVTVSS”, the “polyreactivity (PSR sort gate)” value was “low polyreactivity”.

For “QVQLVESGGGLVQAGGSLRLSCAASGSIFGEYAMGWYRQAPGKERELVADITTGGNTNYADSVKGRFTISRDNAKNTVYLQMNSLKPEDSAVYYCYAFGNTYGYWWFGYWGQGTQVTVSS”, the “polyreactivity (PSR sort gate)” value was “low polyreactivity”.

Regarding “QVQLVESGGGLVQAGGSLRLSCAASGSIFGFNAMGWYRQAPGKERELVAAINNGGSTNYADSVKGRFTISRDNAKNTVYLQMNSLKPEDTAVYYCAVGTLTYEGFRTYYYWGQGTQVTVSS”, the “polyreactivity (PSR sort gate)” value is given as “high polyreactivity”.

Turning to “QVQLVESGGGLVQAGGSLRLSCAASGSIFGFYAMGWYRQAPGKERELVAAITRSGDSTYADSVKGRFTISRDNAKNTVYLQMNSLKPEDTAVYYCATYWQYRYDYWGQGTQVTVSS”, the “polyreactivity (PSR sort gate)” value is “low polyreactivity”.

For the sequence “QVQLVESGGGLVQAGGSLRLSCAASGSIFGFYAMGWYRQAPGKEREMVAAITRSGDSTYADSVKGRFTISRDNAKNTVYLQMNSLKPEDTAVYYCADDIDRSDVNSESYDYDYWGQGTQVTVSS”, the “polyreactivity (PSR sort gate)” value is reported as “low polyreactivity”.

For “QVQLVESGGGLVQAGGSLRLSCAASGSIFGFYDMGWYRQAPGKERELVAAITTGGSTYYADSVKGRFTISRDNAKNTVYLQMNSLKPEDTAVYYCAKERWFPYERNDYWGQGTQVTVSA”, the “polyreactivity (PSR sort gate)” value is on record as “low polyreactivity”.

Turning to “QVQLVESGGGLVQAGGSLRLSCAASGSIFGGNAMGWYRPAPGKERELVAGISTSGGSTYYADSVKGRFTISRDNAKNTVYLQMNSLKPEDTAVYYCARGLGTYPQYWWFGTPGLDYWGQGTQVTVSS”, the “polyreactivity (PSR sort gate)” value is recorded as “low polyreactivity”.

As to “QVQLVESGGGLVQAGGSLRLSCAASGSIFGGNAMGWYRQAAGKERELVAAITQSGGRTYYADSVKGRFTISRDNAKNTVYLQMNSLKPEDTAVYYCNRVYKSQTTDSFPLSYYYWGQGTQVTVSS”, the “polyreactivity (PSR sort gate)” value is on record as “high polyreactivity”.

Regarding “QVQLVESGGGLVQAGGSLRLSCAASGSIFGGYAMGWYRQAPGKERELVARITDRGGSTDYADSVKGRFTISRDNAKNTVYLQMNSLTPEDTAVYYCAKRGDRYEKRPRDYWGQGTQVTVSS”, the “polyreactivity (PSR sort gate)” value is listed as “low polyreactivity”.

Regarding “QVQLVESGGGLVQAGGSLRLSCAASGSIFGGYDMGWYRQAPGKESELVASISGSSSTYYADSVKGRFTISRDNAKNTVYFQMNSLKPEDTAVYYCAVDYHQAWPSADYWFEYDYWGQGTQVTVSS”, the “polyreactivity (PSR sort gate)” value is “low polyreactivity”.

Take “QVQLVESGGGLVQAGGSLRLSCAASGSIFGGYGMGCYRQAPGKERALVAAITSGSSTYYADSVKGRFTISRDNAKKTVYLQMPSLTPEDTAGYYCNADYAYYRDVYSPYDSWGQGTQVTVSS”: the “polyreactivity (PSR sort gate)” value is on record as “low polyreactivity”.

Regarding “QVQLVESGGGLVQAGGSLRLSCAASGSIFGGYGMGWYRQAPGKERELVAAITSGSSTYYADSVKGRFTISRDNAKNTVYLQMNSLKAEDTAVYYCAARPYTHSAYEGDYWGRGTQVTVSS”, the “polyreactivity (PSR sort gate)” value is on record as “low polyreactivity”.

In the case of “QVQLVESGGGLVQAGGSLRLSCAASGSIFGGYGMGWYRQAPGKERELVAAITSGSSTYYADSVKGRFTISRDNAKNTVYLQMNSLKPEDTAVYNCAARPYPHSAYEGDYWGRGTQVTVSS”, the “polyreactivity (PSR sort gate)” value is reported as “low polyreactivity”.

With “QVQLVESGGGLVQAGGSLRLSCAASGSIFGGYTMGWYRQAPGKERKLVAAISRRGGNTYYADSVKGRFTISRDNAKNTVYLLMNSLKPEDTAVYYCAVRWPSARIPVKLDYWGQGTQVTVSS”, the “polyreactivity (PSR sort gate)” value was “high polyreactivity”.

In the case of “QVQLVESGGGLVQAGGSLRLSCAASGSIFGINAMGWYRQAPGKERELVAAISGSTSRTYYADSVKGRFTISRDNAKNTVYLQMNSLKPEDTAVYYCAVVGLRSVTRRSYYWGQGTQVTVSS”, the “polyreactivity (PSR sort gate)” value is on record as “high polyreactivity”.

In the case of “QVQLVESGGGLVQAGGSLRLSCAASGSIFGISTMGWYRQAPGKERELVAAITSGDRTSYADSVKGRFTISRDNAKNTVYLQMNTLKPEDTAVYYCARDYYSYRYLRYDYWGQGTQVTVSS”, the “polyreactivity (PSR sort gate)” value is reported as “low polyreactivity”.
